Source: article PMC9290910, “Neuropilin‐1 is required for endothelial cell adhesion to soluble vascular endothelial growth factor receptor 1” (The Febs Journal, 2021)

Assays:
NRP‐1 [1] = assay: SPR, α5β1 integrin binding to immobilized NRP‐1; parameters: species or system human; settings: NRP‐1 immobilized, α5β1 integrin 20-500 nM
Experimental: SPR analysis of NRP‐1 interaction with α5β1 integrin or semaphorin 3A, in the absence or presence of Flt2‐11 peptide or ‘scrambled’ Flt2‐11. NRP‐1 is immobilized on sensor chip. (A) α5β1 integrin is injected at different concentrations (from bottom to top: 20 nM, cyan; 40 nM, red; 100 nM, green; 200 nM, blue; and 500 nM, black). […] (B) α5β1 integrin is injected at 200 nM concentration together with either Flt2‐11 peptide or scrambled Flt2‐11 peptide at different concentrations (no peptides, black; Flt2‐11 peptide […] and 20 μM, blue and cyan, respectively; scrambled Flt2‐11 peptide at 2 μM and 20 μM, red and purple, respectively). (C) Semaphorin 3A is injected at different concentrations (from bottom to top: 20 nM, cyan; 30 nM, red; 50 nM, green; 200 nM, blue; and 500 nM, black). […] (D) Semaphorin 3A is injected at 200 nM, and peptide Flt2‐11 at different concentrations (no peptides, black; Flt2‐11 peptide 1 μM and 10 μM blue and cyan, respectively; scrambled Flt2‐11 peptide 50 μM, red).
(§1) SPR experiments were carried out using a BIACORE X system (Biacore AB, Uppsala, Sweden). […] The reaction was carried out in 20 mM sodium acetate at pH 5.0, which is about 2 points below the theoretical NRP‐1 isoelectric point calculated using the program pI‐tool. […]
RU express the mass concentration‐dependent changes in the observed SPR signal, that is, the refractive index on the sensor chip surface. Changes in this signal are determined by the interaction between the immobilized protein (i.e., either NRP‐1 or VEGFR‐1) with the analyte protein (i.e., VEGFR‐1/Fc, α5β1 integrin or semaphorin 3A). […] Global fitting analyses of association and dissociation data for all ligand concentrations were carried out using BIAEVALUATION software 3.0 (Biacore, Uppsala, Sweden), which allows the ratio between association and dissociation constants (k on/k off) to be accurately determined. […]

sVEGFR‐1 = assay: SPR, α5β1 integrin binding to immobilized sVEGFR‐1; parameters: species or system human; settings: sVEGFR‐1 immobilized, α5β1 integrin 80 nM-1 μM
Experimental: Fig. 7 sVEGFR‐1/α5β1 integrin interaction. (A) SPR analysis of the interaction between sVEGFR‐1 and α5β1 integrin. sVEGFR‐1 is immobilized on sensor chips and α5β1 integrin is injected at different concentrations (from bottom to top: 80 nM, cyan; 160 nM, red; 350 nM, green; 600 nM, blue; and 1 μM, black). […] (B) Secondary structure representation of the 3D structure of VEGFR‐1 Ig‐like domain II. β‐strands are represented by arrows and labelled from A to H; loops are shown as tubular ribbons; the N‐ and C‐terminal ends of the domain are indicated by labels. Colour coding: peptide 12 (interacting with α5β1 integrin) is blue; Flt2‐11 peptide (interacting with NRP‐1) is yellow in the five‐residue NITVT region corresponding to the Flt2‐5 peptide (see text), and green in the remaining six‐residues region; the rest of the domain is magenta. (C) Proposed mechanism of action of Flt2‐11 peptide. Left: Light blue arrows indicate the high‐affinity interactions: (i) between NRP‐1 (yellow) and α5β1 integrin (black) on the EC membrane; and (ii) between NRP‐1 on the EC membrane and the sVEGFR‐1 substrate (green). The dark blue arrow indicates the low‐affinity interaction between α5β1 integrin on the EC membrane and the sVEGFR‐1 substrate. The low‐affinity interaction is stabilized by the two high‐affinity interactions, and the angiogenic stimulus is triggered. Centre: The Flt2‐11 peptide inhibits the high‐affinity interaction between NRP‐1 on the EC membrane and the sVEGFR‐1 substrate. The low‐affinity interaction between α5β1 integrin on ECs and the sVEGFR‐1 substrate is not sufficiently stable to trigger the angiogenic stimulus that starts upon integrin engagement. […]
as §1

Recombinant human NRP‐1 = target: T1, Recombinant human NRP‐1 (human, UniProt O14786 22-856); assay: SPR; BIACORE X, CM5; NRP-1 immobilised by amine coupling; analyte in HEPES-buffered saline (10 mM HEPES pH 7.4, 150 mM NaCl, 0.005% P20); global 1:1 Langmuir fit; settings: both partners purified
T1 construct: Neuropilin-1, human, recombinant soluble protein; see the vendor's datasheet (as far as I recall an extracellular fragment with a C-terminal His tag); also called Neuropilin‐1; soluble NRP‐1; source: bought: R&D Systems (3870‐N1)
T1 sequence (looked up): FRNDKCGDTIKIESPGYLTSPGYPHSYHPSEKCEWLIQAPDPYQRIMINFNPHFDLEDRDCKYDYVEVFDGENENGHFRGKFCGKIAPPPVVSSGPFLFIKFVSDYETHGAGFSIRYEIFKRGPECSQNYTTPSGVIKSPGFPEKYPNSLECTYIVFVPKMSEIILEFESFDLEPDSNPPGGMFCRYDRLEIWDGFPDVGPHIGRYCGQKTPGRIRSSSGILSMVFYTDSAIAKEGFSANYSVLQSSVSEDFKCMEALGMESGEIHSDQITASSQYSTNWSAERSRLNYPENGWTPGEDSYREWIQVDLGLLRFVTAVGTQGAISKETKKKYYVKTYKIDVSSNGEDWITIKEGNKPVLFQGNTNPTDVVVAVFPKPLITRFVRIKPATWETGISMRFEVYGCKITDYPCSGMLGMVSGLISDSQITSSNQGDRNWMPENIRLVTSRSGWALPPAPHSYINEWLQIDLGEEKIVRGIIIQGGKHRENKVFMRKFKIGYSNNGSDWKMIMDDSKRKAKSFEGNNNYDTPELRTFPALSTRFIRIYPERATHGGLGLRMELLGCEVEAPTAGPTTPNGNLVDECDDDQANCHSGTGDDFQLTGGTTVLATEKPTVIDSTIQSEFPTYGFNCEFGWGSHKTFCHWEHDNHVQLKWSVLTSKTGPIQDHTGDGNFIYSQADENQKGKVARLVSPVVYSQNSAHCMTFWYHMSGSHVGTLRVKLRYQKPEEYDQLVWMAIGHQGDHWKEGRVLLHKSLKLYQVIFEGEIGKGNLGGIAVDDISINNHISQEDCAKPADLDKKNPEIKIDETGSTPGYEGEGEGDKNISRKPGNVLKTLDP

NRP‐1 [2] = assay: SPR, semaphorin 3A binding to immobilized NRP‐1; parameters: species or system human; settings: NRP‐1 immobilized, semaphorin 3A 20-500 nM
Experimental: SPR analysis of NRP‐1 interaction with α5β1 integrin or semaphorin 3A, in the absence or presence of Flt2‐11 peptide or ‘scrambled’ Flt2‐11. NRP‐1 is immobilized on sensor chip. (A) α5β1 integrin is injected at different concentrations (from bottom to top: 20 nM, cyan; 40 nM, red; 100 nM, green; 200 nM, blue; and 500 nM, black). […] (B) α5β1 integrin is injected at 200 nM concentration together with either Flt2‐11 peptide or scrambled Flt2‐11 peptide at different concentrations (no peptides, black; Flt2‐11 peptide […] and 20 μM, blue and cyan, respectively; scrambled Flt2‐11 peptide at 2 μM and 20 μM, red and purple, respectively). (C) Semaphorin 3A is injected at different concentrations (from bottom to top: 20 nM, cyan; 30 nM, red; 50 nM, green; 200 nM, blue; and 500 nM, black). […]
as §1
RU express the mass concentration‐dependent changes in the observed SPR signal, that is, the refractive index on the sensor chip surface. Changes in this signal are determined by the interaction between the immobilized protein (i.e., either NRP‐1 or VEGFR‐1) with the analyte protein (i.e., VEGFR‐1/Fc, α5β1 integrin or semaphorin 3A). […]

Purified α5β1 integrin = target: T2, Purified α5β1 integrin (UniProt P08648 42-1049; P05556 21-728); assay: SPR; BIACORE X, CM5; VEGFR-1/Fc captured (about 200 RU) on amine-coupled protein A; α5β1 integrin injected; HEPES-buffered saline (10 mM HEPES pH 7.4, 150 mM NaCl, 0.005% P20); 1:1 Langmuir fit; settings: both partners purified
T2 construct: integrin alpha-5 subunit; integrin beta-1 subunit; As far as I recall this product is purified from human tissue; also called integrin α5β1; source: bought: Merck Millipore (CC1052), purified, octyl‐β‐D‐glucopyranoside formulation
T2 sequence (P08648 42-1049, chain 1 of 2): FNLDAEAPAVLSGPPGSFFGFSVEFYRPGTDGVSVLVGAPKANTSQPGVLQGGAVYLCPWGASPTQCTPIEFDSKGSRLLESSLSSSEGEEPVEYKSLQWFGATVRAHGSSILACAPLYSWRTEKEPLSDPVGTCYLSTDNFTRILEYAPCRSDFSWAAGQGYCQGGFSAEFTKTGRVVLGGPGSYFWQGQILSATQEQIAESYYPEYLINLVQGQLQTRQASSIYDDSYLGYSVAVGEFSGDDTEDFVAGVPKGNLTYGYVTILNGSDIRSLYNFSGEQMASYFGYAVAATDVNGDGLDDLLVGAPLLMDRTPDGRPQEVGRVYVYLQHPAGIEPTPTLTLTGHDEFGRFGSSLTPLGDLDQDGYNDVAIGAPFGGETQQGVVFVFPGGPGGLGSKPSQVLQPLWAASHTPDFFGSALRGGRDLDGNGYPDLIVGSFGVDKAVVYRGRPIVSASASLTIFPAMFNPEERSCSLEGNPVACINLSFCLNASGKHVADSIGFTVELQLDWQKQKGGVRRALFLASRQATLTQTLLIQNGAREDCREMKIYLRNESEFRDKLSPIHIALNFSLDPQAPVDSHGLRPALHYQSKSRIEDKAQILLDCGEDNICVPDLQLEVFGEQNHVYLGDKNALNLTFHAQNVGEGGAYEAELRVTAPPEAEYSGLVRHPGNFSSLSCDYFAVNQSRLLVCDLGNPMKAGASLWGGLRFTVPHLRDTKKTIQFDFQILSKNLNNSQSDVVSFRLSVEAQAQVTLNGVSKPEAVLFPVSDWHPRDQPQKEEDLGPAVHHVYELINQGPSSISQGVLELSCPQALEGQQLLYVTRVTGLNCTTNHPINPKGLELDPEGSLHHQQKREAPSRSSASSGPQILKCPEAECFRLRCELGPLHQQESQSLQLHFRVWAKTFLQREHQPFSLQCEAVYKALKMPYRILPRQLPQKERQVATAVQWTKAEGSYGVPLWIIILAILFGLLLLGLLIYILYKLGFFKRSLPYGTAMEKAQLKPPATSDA
T2 sequence (P05556 21-728, chain 2 of 2): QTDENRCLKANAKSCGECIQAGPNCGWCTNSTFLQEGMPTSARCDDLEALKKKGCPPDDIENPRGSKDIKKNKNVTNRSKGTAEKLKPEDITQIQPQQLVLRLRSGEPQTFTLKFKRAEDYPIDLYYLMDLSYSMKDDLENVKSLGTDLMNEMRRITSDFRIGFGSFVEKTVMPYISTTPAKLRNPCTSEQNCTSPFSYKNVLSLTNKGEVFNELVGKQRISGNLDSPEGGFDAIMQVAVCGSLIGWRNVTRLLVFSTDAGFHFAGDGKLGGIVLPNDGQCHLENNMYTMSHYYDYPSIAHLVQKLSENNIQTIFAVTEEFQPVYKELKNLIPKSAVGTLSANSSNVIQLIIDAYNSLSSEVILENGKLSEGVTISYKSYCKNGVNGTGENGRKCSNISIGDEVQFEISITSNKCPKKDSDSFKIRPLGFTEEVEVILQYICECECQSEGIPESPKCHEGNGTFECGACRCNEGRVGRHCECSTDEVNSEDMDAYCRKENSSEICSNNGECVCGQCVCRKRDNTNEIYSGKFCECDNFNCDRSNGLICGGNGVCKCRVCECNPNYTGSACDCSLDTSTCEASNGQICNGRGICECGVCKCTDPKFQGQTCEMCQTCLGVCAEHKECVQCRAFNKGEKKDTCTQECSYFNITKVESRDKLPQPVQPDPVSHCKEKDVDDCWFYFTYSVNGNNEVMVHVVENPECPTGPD

What does the source list for “α5β1 integrin: Purified α5β1 integrin (CC1052), Merck Millipore”?
k off (NRP‐1 [1]): 0.00029 s⁻¹; k on (NRP‐1 [1]): 21000 M⁻¹ s⁻¹; Kd (NRP‐1 [1]; read-out: K D, NRP‐1/α5β1 integrin): 14 ± 4 nM; k off (sVEGFR‐1): 0.00029 s⁻¹; k on (sVEGFR‐1): 1500 M⁻¹ s⁻¹; Kd (sVEGFR‐1; read-out: K D, sVEGFR‐1/α5β1 integrin): 195 ± 40 nM

B1: semaphorin 3A (ligand)
chain: NYQNGKNNVPRLKLSYKEMLESNNVITFNGLANSSSYHTFLLDEERSRLYVGAKDHIFSFDLVNIKDFQKIVWPVSYTRRDECKWAGKDILKECANFIKVLKAYNQTHLYACGTGAFHPICTYIEIGHHPEDNIFKLENSHFENGRGKSPYDPKLLTASLLIDGELYSGTAADFMGRDFAIFRTLGHHHPIRTEQHDSRWLNDPKFISAHLISESDNPEDDKVYFFFRENAIDGEHSGKATHARIGQICKNDFGGHRSLVNKWTTFLKARLICSVPGPNGIDTHFDELQDVFLMNFKDPKNPVVYGVFTTSSNIFKGSAVCMYSMSDVRRVFLGPYAHRDGPNYQWVPYQGRVPYPRPGTCPSKTFGGFDSTKDLPDDVITFARSHPAMYNPVFPMNNRPIVIKTDVNYQFTQIVVDRVDAEDGQYDVMFIGTDVGTVLKVVSIPKETWYDLEEVLLEEMTVFREPTAISAMELSTKQQQLYIGSTAGVAQLPLHRCDIYGKACAECCLARDPYCAWDGSACSRYFPTAKRRTRRQDIRNGDPLTHCSDLHHDNHHGHSPEERIIYGVENSSTFLECSPKSQRALVYWQFQRRNEERKEEIRVDDHIIRTDQGLLLRSLQQKDSGNYLCHAVEHGFIQTLLKVTLEVIDTEHLEELLHKDDDGDGSKTKEMSNSMTPSQKVWYRDFMQLINHPNLNTMDEFCEQVWKRDRKQRRQRPGHTPGNSNKWKHLQENKKGRNRRTHEFERAPRSV
How did the Kd (Recombinant human NRP‐1) turn out when B1 was run?
The Kd was 24 ± 6 nM.

What about the koff (Recombinant human NRP‐1) of the same molecule?
Its koff is 9e-05 s⁻¹.

What about the kon (Recombinant human NRP‐1) of the same molecule?
The kon was 3700 M⁻¹ s⁻¹.

And the k off (NRP‐1 [2])?
Its k off is 9e-05 s⁻¹.

What about the k on (NRP‐1 [2]) of the same molecule?
The k on was 3700 M⁻¹ s⁻¹.

B2: Recombinant human VEGFR‐1/Fc (Fc fusion, UniProt P17948 27-758, looked up)
chain: SKLKDPELSLKGTQHIMQAGQTLHLQCRGEAAHKWSLPEMVSKESERLSITKSACGRNGKQFCSTLTLNTAQANHTGFYSCKYLAVPTSKKKETESAIYIFISDTGRPFVEMYSEIPEIIHMTEGRELVIPCRVTSPNITVTLKKFPLDTLIPDGKRIIWDSRKGFIISNATYKEIGLLTCEATVNGHLYKTNYLTHRQTNTIIDVQISTPRPVKLLRGHTLVLNCTATTPLNTRVQMTWSYPDEKNKRASVRRRIDQSNSHANIFYSVLTIDKMQNKDKGLYTCRVRSGPSFKSVNTSVHIYDKAFITVKHRKQQVLETVAGKRSYRLSMKVKAFPSPEVVWLKDGLPATEKSARYLTRGYSLIIKDVTEEDAGNYTILLSIKQSNVFKNLTATLIVNVKPQIYEKAVSSFPDPALYPLGSRQILTCTAYGIPQPTIKWFWHPCNHNHSEARCDFCSNNEESFILDADSNMGNRIESITQRMAIIEGKNKMASTLVVADSRISGIYICIASNKVGTVGRNISFYITDVPNGFHVNLEKMPTEGEDLKLSCTVNKFLYRDVTWILLRTVNNRTMHYSISKQKMAITKEHSITLNLTIMNVSLQDSGTYACRARNVYTGEEILQKKEITIRDQEAPYLLRNLSDHTVAISSSTTLDCHANGVPEPQITWFKNNHKIQQEPGIILGPGSSTLFIERVTEEDEGVYHCKATNQKGSVESSAYLTVQGTSDKSNLE
notes: VEGFR-1 (Flt-1), human, recombinant Fc chimera; also called sVEGFR‐1; sVEGFR‐1/Fc; source: bought: R&D Systems (321‐FL‐050)
B2 was tested. Which Kd (Purified α5β1 integrin) did it give?
Its Kd is 195 ± 40 nM.

And the koff (Purified α5β1 integrin)?
Its koff is 0.00029 s⁻¹.

What about the kon (Purified α5β1 integrin) of the same molecule?
Its kon is 1500 M⁻¹ s⁻¹.

And the Kd (Recombinant human NRP‐1)?
The Kd was 25 ± 4 nM.

And the koff (Recombinant human NRP‐1)?
Its koff is 0.0003 s⁻¹.

And the kon (Recombinant human NRP‐1)?
The kon was 12000 M⁻¹ s⁻¹.
